Reference: paper PMC3208561, “Phylogenetic and Complementation Analysis of a Single-Stranded DNA Binding Protein Family from Lactococcal Phages Indicates a Non-Bacterial Origin”

Molecular target: T1, Orf14bIL67 (phage SSB) (Lactococcus phage bIL67, UniProt Q38257 1-123)
T1 sequence: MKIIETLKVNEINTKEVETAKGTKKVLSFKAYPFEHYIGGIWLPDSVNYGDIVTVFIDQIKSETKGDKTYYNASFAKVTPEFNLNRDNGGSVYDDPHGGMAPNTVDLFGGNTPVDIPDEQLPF
Experiment: EMSA; 30°C; protein up to 100 nM, 0.5 nM DNA; 20 mM Tris-HCl pH 7.5, 25 mM KCl, 1 mM EDTA, 1 mM DTT, 2.5% glycerol, 0.3 mg/ml BSA; 10 min at 30 or 38°C; 5% native PAGE in 0.25x TBE at 4°C
Settings: protein: recombinant; tags: IMPACT-CN (intein) purification; label: 5'-32P

B1: 80-mer oligonucleotide (ssDNA)
DNA: TTTGTCGGTACTTTATATTCTCTTATTACTGGCTCGAAAATGCCTCTGCCTAAATTACATGTTGGCGTTGTTAAATATGGGGG
- binding result: binds
